Experimental data reported in publication PMC6137056.

Tests used:
[1] = test system: UVI31+ (wild type) (Chlamydomonas reinhardtii), PDB:5ZB6_1; assay: EMSA; settings: ITC: 10 mM Tris-HCl pH 7.5, 50 mM NaCl, 5% glycerol, 5 mM MgCl2, 0.1 mM EDTA, 25 C, EMSA: 10 mM Na-phosphate pH 7.5, 10 mM NaCl, 1 mM MgCl2, 37 C, 5 min, 1 uM …
[2] = test system: UVI31+ (wild type) (Chlamydomonas reinhardtii), PDB:5ZB6_1; assay: ITC; settings: ITC: 10 mM Tris-HCl pH 7.5, 50 mM NaCl, 5% glycerol, 5 mM MgCl2, 0.1 mM EDTA, EMSA: 10 mM Na-phosphate pH 7.5, 10 mM NaCl, 1 mM MgCl2, 37 C, 5 min, 1 uM …; for Ka (M-1 (unit not given)): 5 mM MgCl2, 25 C

**Q.** 50-bp dsDNA (EMSA) was tested. Which Kd [1] did it give?
**A.** 1100 nM

**Q.** How did the Ka (M-1 (unit not given)) ([2]; K1, sequential binding model) turn out when “CGCGAATTCGCG (double strand) [12-mer self-complementary ds-DNA]” was run?
**A.** 3.05e+06

**Q.** What about the Ka (M-1 (unit not given)) ([2]; K2, sequential binding model) of the same substance?
**A.** 11400

**Q.** What about the Kd ([2]; apparent Kd, two sets of sites, 5 mM MgCl2, 50 mM NaCl, pH 7.5, 25 C) of the same substance?
**A.** 5360 nM

**Q.** With ssDNA (EMSA, 50-mer) as the substance, how does the Kd ([1]; 1 mM MgCl2, partial loss of ssDNA by cleavage) read?
**A.** 1400 nM
